Kd data for one molecule are collected here from PMC10284691, “A tripartite rheostat controls self-regulated host plant resistance to insects” (Nature, 2023).

Assay [1] concerns the target T1, BISP(26–124) (purified from insect cells) (Nilaparvata lugens (brown planthopper)).
T1 construct: source: SF9 insect cells (baculovirus), purified (Ni-NTA, dialysed in PBS)
Kind of assay: BLI; Octet RED96; biotinylated LRR or N14–LRR (20 μg/ml) on streptavidin biosensors, BISP, BISP(26–124) or BISP(125–241) in solution at different concentrations; PBS pH 7.4 with 0.05% Tween 20 and 0.5% BSA; 25 °C; association 180 s, dissociation 180 s; global fit. To be noted: both partners purified.

The target of assay [2] is T2, BISP (purified from insect cells) (Nilaparvata lugens (brown planthopper)).
T2 construct: probably this one too; source: SF9 insect cells (baculovirus), purified (Ni-NTA, dialysed in PBS)
The description is as above. To be noted: both partners purified.

B1: BPH14–LRR (purified from insect cells) (domain or fragment)
chain: SGDRPEAIRTPSPEKGYPGIQTLICSRFKYLQNVSKYRSLRVLTTMWEGSFLIPKYHHHLRYLDLSESEIKALPEDISILYHLQTLNLSRCLSLRRLPKGMKYMTALRHLYTHGCWSLGSMPPDLGHLTCLQTLTCFVAGTCSGCSDLGELRQLDLGGRLELRKLENVTKADAKAANLGKKEKLTKLTLIWTDQEYKEAQSNNHKEVLEGLTPHEGLKVLSIYHCGSSTCPTWMNKLRDMVGLELNGCKNLEKLPPLWQLPALQVLCLEGLGSLNCLFNCDTHTPFTFCRLKELTLSDMTNFETWWDTNEVQGEELMFPEVEKLSIESCHRLTALPKASNAISESSGEVSTVCRSAFPALKEMKLYDLRIFQKWEAVDGTPREEATFPQLDKLEIRQCPELTTLPEAPKLSDLEISKGNQQISLQAASRHITSLSSLVLHLSTDDTETASVAKQQDSSDLVIEDEKWSHKSPLELMVLSRCNLLFSHPSALALWTCFAQLLDLKIRYVDALVSWPEEVFQGLVSLRKLEISVCENLTGHTQARGQSTPAPSELLPRLESLEITCCDSIVEVPNLPASLKLLEIRGCPGLESIVFNQQQDRTMLVSAESFAEQDKSSLISGSTSETNDHVLPRLESLVINWCDRLEVLHLPPSIKKLGIYSCEKLRSLSVKLDAVRELSIRHCGSLKSLESCLGELASLQQLKLFDCKSLESLPKGPQAYSSLTSLEIRGCSGIKVLPPSLQQRLDDIEDKELDACYEEAEAEPKSRHRQSAISRLMCLK
modifications: biotin (NHS-biotin) in the BLI assays; RED-NHS 2nd Generation dye in the MST assays
A word on the Kd: it is the concentration at which binding is half-saturated. On to B1, for which the results for the dissociation constant (Kd) in assay [1] and in assay [2] were 127 nM and 32.1 nM, respectively.
